Experimental findings from US20260078186A1 (HEFEI TG IMMUNOPHARMA, published 2026) are described below.

In test [1] the target is T1, PD-L1 on the surface of tumor cells (human lung adenocarcinoma A549 cells, human melanoma A375 cells) (human, UniProt Q9NZQ7 19-290).
T1 construct: whole, on cells; No PD-L1-negative control cell is described; also called PD-L1 protein on the surface of tumor cells
Put plainly: flow cytometry on A375 and A549 cells. The method, then: Human melanoma A375 cells and human lung adenocarcinoma A549 cells were diluted to 1×10⁶ cells/mL with PBS and added to 1.5 mL EP tubes at 100 μL/tube. 10 μL/tube of rat serum was added and blocked at 4° C. for 30 minutes. […] 1 mL of PBS was added to the EP tube. The system was centrifuged at 4° C. and 3500 rpm for 5 min. The supernatant was discarded, and the system was washed again with PBS. After centrifugation, the supernatant was discarded, and the cells were resuspended with 100 μL/tube PBS. 1 μL/tube of Alexa-647-labeled rat anti-human secondary antibody (Biolegend) was added and incubated at 4° C. in the dark for 30 min. The system was washed twice with PBS, and the supernatant was discarded after centrifugation. The cells were resuspended with 200 μL/tube PBS and detected by flow cytometry.

For test [2], the target named is T2, Human PD-L1-Fc fusion protein (purchased from Acro) (human, UniProt Q9NZQ7 19-238).
T2 construct: extracellular domain; also called PD-L1 fusion protein; PD-L1 extracellular region protein; not shown: Fc part of the bought fusion protein
T2 sequence (Q9NZQ7 19-238): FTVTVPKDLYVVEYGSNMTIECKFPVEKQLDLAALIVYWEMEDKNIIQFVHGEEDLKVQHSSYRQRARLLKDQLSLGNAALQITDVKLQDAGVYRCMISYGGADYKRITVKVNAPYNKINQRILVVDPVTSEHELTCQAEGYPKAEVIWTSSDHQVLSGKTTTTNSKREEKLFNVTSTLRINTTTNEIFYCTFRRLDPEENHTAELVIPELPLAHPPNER
Put plainly: ELISA, PD-L1-Fc coated at 1 µg/ml; h19B8 binds slightly more strongly than CD3×h19B8.

For test [3], the target named is T2, Human PD-L1-Fc fusion protein …. Put plainly: ELISA.
Test [4] shares this target. Put plainly: ELISA, PD-L1-Fc coated at 1 µg/ml, anti-mouse IgG-HRP. (An ELISA detects its analyte on a solid surface through an enzyme-linked reagent.)
Method: The PBS buffer in the 96-well plate was removed, and the plate was washed 6 times with PBST (pH 7.2 PBS containing 0.1% Tween 20) buffer. PBS/10% BSA was added at 200 μl/well and incubated at 37° C. for 2 h for blocking. The blocking solution was removed, and the plate was washed 6 times with PBST. […] The reaction system was removed, and the plate was washed 6 times with PBST. HRP (horseradish peroxidase)-labeled anti-mouse IgG secondary antibody was diluted with PBST/0.05% BSA at 100 μl/well and incubated at 37° C. for 1 h. After washing the plate 6 times with PBST, 80 μl/well TMB (tetramethylbenzidine) was added and incubated at room temperature for 3 min. 4 M sulfuric acid was added at 80 μl/well to terminate the reaction. The absorbance was read at 450 nm using a microplate reader.
Test [5] has as its target T1, PD-L1 on the surface of tumor cells …. The experiment in a line: flow cytometry on A549 cells. The method, then: 1 mL of PBS was added to the EP tube. […] The supernatant was discarded, and the system was washed again with PBS. […] The system was washed twice with PBS, and the supernatant was discarded after centrifugation. The cells were resuspended with 200 μL/tube PBS and detected by flow cytometry.

T1 sequence (Q9NZQ7 19-290): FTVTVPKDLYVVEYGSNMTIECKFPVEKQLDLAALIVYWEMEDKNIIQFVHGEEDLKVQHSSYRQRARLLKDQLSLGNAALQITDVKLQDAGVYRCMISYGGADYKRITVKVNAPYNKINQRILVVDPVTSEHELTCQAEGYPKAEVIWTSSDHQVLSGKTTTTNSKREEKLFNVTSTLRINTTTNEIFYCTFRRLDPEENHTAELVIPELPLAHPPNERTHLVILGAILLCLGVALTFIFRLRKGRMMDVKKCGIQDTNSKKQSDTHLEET

B1: humanized PD-L1 antibody h19B8-hIgG1LALA (h19B8-hIgG1LALA heavy chain / h19B8-hK light chain) (antibody, V domains shown)
VH: QVQLVQSGAEVKKPGASVKVSCKASGYSFTGYYMHWVRQAPGQGLEWIGRINPYNGATTYSQNFKDRATMTVDTSISTAYMELSRLRSDDTAVYYCVPTGMGYFLMDYWGQGTLVTVSS
VL: DIQLTQSPSFLSASVGDRVTITCKASQDVGSAVVWYQQKPGKAPKLLIYWASTRHTGVPSRFSGSGSGTEFTLTISSLQPEDFATYFCQQFTSYPTFGQGTKLEIKR
notes: also called humanized 19B8 antibody; h19B8 monoclonal antibody
As to B1, the binding result in test [1] and in test [2] was “binds” in each case.

B2: chimeric antibody 19B8-hIgG1LALA (19B8-hIgG1LALA heavy chain / 19B8-hK light chain) (antibody)
heavy: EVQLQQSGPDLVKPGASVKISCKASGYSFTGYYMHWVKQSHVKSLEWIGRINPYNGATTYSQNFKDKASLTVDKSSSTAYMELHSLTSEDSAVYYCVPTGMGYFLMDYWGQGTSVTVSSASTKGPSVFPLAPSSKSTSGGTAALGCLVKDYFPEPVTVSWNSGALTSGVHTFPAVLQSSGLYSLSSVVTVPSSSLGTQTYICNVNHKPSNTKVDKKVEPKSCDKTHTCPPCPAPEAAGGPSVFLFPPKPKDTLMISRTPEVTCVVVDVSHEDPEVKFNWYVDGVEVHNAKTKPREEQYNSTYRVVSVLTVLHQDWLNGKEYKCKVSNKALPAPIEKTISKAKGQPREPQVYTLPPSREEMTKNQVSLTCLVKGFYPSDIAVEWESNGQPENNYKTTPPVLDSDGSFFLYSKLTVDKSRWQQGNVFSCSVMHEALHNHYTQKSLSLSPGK
light: DIVMTQSHKFMSASVGDRVSITCKASQDVGSAVVWYRQKPGQSPKLLIYWASTRHTGVPDRFTGSGSGTDFTLTISNVQSEDLADYFCQQFTSYPTFGSGTRLEIKRTVAAPSVFIFPPSDEQLKSGTASVVCLLNNFYPREAKVQWKVDNALQSGNSQESVTEQDSKDSTYSLSSTLTLSKADYEKHKVYACEVTHQGLSSPVTKSFNRGEC
notes: Murine 19B8 variable regions on human IgG1 LALA / human kappa constant regions; also called 19B8 chimeric antibody; human-murine chimeric PD-L1 antibody
As to B2, the binding result in test [1] and in test [3] was “binds” in each case.

B3: murine 19B8 antibody (19B8-mIgG1 heavy chain / 19B8-mK light chain) (antibody)
heavy: EVQLQQSGPDLVKPGASVKISCKASGYSFTGYYMHWVKQSHVKSLEWIGRINPYNGATTYSQNFKDKASLTVDKSSSTAYMELHSLTSEDSAVYYCVPTGMGYFLMDYWGQGTSVTVSSAKTTPPSVYPLAPGSAAQTNSMVTLGCLVKGYFPEPVTVTWNSGSLSSGVHTFPAVLQSDLYTLSSSVTVPSSPRPSETVTCNVAHPASSTKVDKKIVPRDCGCKPCICTVPEVSSVFIFPPKPKDVLTITLTPKVTCVVVDISKDDPEVQFSWFVDDVEVHTAQTQPREEQFNSTFRSVSELPIMHQDWLNGKEFKCRVNSAAFPAPIEKTISKTKGRPKAPQVYTIPPPKEQMAKDKVSLTCMITDFFPEDITVEWQWNGQPAENYKNTQPIMNTNGSYFVYSKLNVQKSNWEAGNTFTCSVLHEGLHNHHTEKSLSHSPGK
light: DIVMTQSHKFMSASVGDRVSITCKASQDVGSAVVWYRQKPGQSPKLLIYWASTRHTGVPDRFTGSGSGTDFTLTISNVQSEDLADYFCQQFTSYPTFGSGTRLEIKRADAAPTVSIFPPSSEQLTSGGASVVCFLNNFYPKDINVKWKIDGSERQNGVLNSWTDQDSKDSTYSMSSTLTLTKDEYERHNSYTCEATHKTSTSPIVKSFNRNEC
notes: Recombinant murine IgG1/kappa made in ExpiCHO-S cells; also called murine PD-L1 antibody 19B8; murine PD-L1 antibody (19B8)
For B3, the binding result in test [4] and in test [5] was “binds” throughout.
